The values that follow come from PMC7480081.

This data set has as its target T1, Csa3b (Sulfolobus islandicus REY15A) (UniProt F0NH47).
T1 sequence: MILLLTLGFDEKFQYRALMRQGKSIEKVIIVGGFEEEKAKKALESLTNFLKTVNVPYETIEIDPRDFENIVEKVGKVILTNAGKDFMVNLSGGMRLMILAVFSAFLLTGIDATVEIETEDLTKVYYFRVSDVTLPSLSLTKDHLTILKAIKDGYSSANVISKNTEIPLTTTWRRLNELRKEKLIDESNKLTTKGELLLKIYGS
The data set is described as follows: LSPR. Conditions: DNA immobilized, LSPR (OpenSPR, COOH chip, 20 uL/min, 5 min, 1:1 fit; running buffer not stated), DNase I footprinting: 400 ng probe in 40 uL, 30 min at 30 C, DNase I 1 min at ….

A word on the Kd: it is the constant that tells how readily two partners part at equilibrium. As to csa1 promoter, full-length (LSPR), the Kd was 300 nM (20 uM 5'-CAAAA-3') and 4240 nM (no CAAAA).
cmr4 (cmr4-alpha) promoter (LSPR) displayed a Kd of 17.2 nM.
